Consider three compounds from article doi:10.1101/2025.09.11.675134, “Biodistribution-Driven Discovery Identifies a Glycosidase-Cleavable Linker to Reprogram Radiotheranostics” (bioRxiv, 2025).

The series concerns AR42J xenografts. Briefly: Dosimetry estimates of 225Ac-labeled variants from biodistribution data. The class given is in vivo, athymic nu/nu mice. From the text: To evaluate the organ-level radiation absorbed dose resulting from different DOTA-TATE derivatives, we calculated the total effective dose per unit of injected activity (Eff Dose/IA, mSv/MBq) for ^225Ac-labeled variants based on biodistribution data in AR42J xenograft-bearing mice (Tables S5).
Estimated absorbed doses for individual organs for ^225Ac- and ^86Y-labeled DOTA-TATE variants were derived from residence times calculated using %IA/g data from biodistribution studies. The time–activity curves incorporated data from both radionuclides to provide complete coverage of early and late time points. Details of the dosimetry methodology, including time–activity curve construction, integration approach, decay assumptions, and conversion to effective dose, are provided in the Supplementary Information.
Dosimetry: The dosimetry was calculated by measuring the residence time per gram for each organ using the percent injected activity per gram (%IA/g) data collected for the biodistribution study. Because two biodistribution data sample groups were collected, one for the 86Y and the other for the 225Ac variant of the three DOTA-TATE variants (DOTA-TATE, DOTA-MVK(ε)- TATE, and DOTA-β-Gal-TATE) the %IA/g time activity curves (TAC) of the 86Y variant were merged with the 225Ac TACs. This was possible because of the difference in half lives between 86Y and 225Ac being 14.74 and 237.8 hours respectively setting the measurement time points to be 1, 4 and 24 hours for the 86Y ligands and 24, 96 hours for 225Ac. The full time activity curve is thus made up of the 1 and 4 hour time points of the 86Y %IA/g data points, an average of the common 24 hour time point of the 86Y and 225Ac %IA/g data points and the last 96 hour %IA/g time point of the 225Ac samples. The full 4 time points of 1, 4, 24, and 96 hours making up the […]
from which the residence times were calculated.
The integration of the TAC was performed using trapezoidal interpolation between time points.
The first time point assumed constant activity and a decay curve with the half life of the radioisotope was used to estimate activity beyond 96 hours. The average %IA/g was used for each tissue sample for each time point and the resulting standard deviation of the average was then used as the error estimate per time point to propagate through the residence time calculation.
Using the residence time for each TAC, the dose was calculated by looking up the dose per decay for each alpha, beta (positron and electron from nuclear beta decay) and electron emission listed in the nuclear data sheets provided by the Brookhaven National Laboratory National Nuclear Data Center. Since the 225Ac decays via a complicated decay chain, it is assumed that the dose from the daughters remains in the tissue assuming no biological dissemination once the 225Ac decays breaking the bonds of the DOTA-TATE ligand. The following mean dose per decay were used. For 225Ac, 27.58MeV/Bq-s for alpha emissions, 1.33MeV/Bq-s for beta plus electron emissions. For 86Y, 0.219 MeV/Bq-s for beta and electron emissions. Gamma emissions were ignored because of the small size of the tissue samples have small gamma absorption effects which would contribute negligibly to the dose calculation. Furthermore, dosimetry estimate […]
inter organ activity can be calculated(62).
To estimate the effective dose in mSv/MBq, a radiological factor of 5 was used to multiply the dose calculated from the alpha ionizations while a factor of 1 was used for the beta and electron ionizations to convert from mGy/MBq to mSv/MBq (63, 64).

The mark [1] stands for this setting: 225Ac-labeled, AR42J xenografts, from biodistribution time-activity curves, alpha factor 5, mean, n = 4–5.
Setting [2] is: 225Ac-labeled, dosimetry estimate.
The mark [3] stands for this setting: absorbed-dose estimate at 148 kBq per mouse.

With `C[C@@H](O)[C@H](NC(=O)[C@@H]1CSSC[C@H](NC(=O)[C@@H](Cc2ccccc2)NC(=O)CCCC(=O)Nc2cc(COC(=O)N(C)CCNC(=O)CN3CCN(CC(=O)O)CCN(CC(=O)O)CCN(CC(=O)O)CC3)ccc2O[C@@H]2O[C@H](CO)[C@H](O)[C@H](O)[C@H]2O)C(=O)N[C@@H](Cc2ccc(O)cc2)C(=O)N[C@H](Cc2c[nH]c3ccccc23)C(=O)N[C@@H](CCCCN)C(=O)N[C@@H]([C@@H](C)O)C(=O)N1)C(=O)O` [^225Ac-DOTA-β-Gal-TATE, metal not drawn], under setting [1], the “Total effective dose per injected activity, Femur” value is listed as 7.96E+04 mSv/MBq; the “Total effective dose per injected activity, Heart” value is listed as 1.20E+04 mSv/MBq; the “Total effective dose per injected activity, Intestine” value is given as 2.87E+04 mSv/MBq; the “Total effective dose per injected activity, Kidney” value was 1.56 × 10^5 mSv/MBq. Moreover, under setting [1], the “Total effective dose per injected activity, Liver” value is recorded as 1.34E+05 mSv/MBq; the “Total effective dose per injected activity, Lung” value is reported as 1.91E+04 mSv/MBq; the “Total effective dose per injected activity, Muscle” value is 1.02E+04 mSv/MBq; the “Total effective dose per injected activity, Spleen” value is 3.37E+04 mSv/MBq. In addition, the “Total effective dose per injected activity, Tumor” value under setting [1] is 1.06 × 10^6 mSv/MBq. The “Total effective dose per injected activity, Blood” value (225Ac-labeled, AR42J xenografts, from merged 86Y/225Ac time-activity curves (1, 4, 24, 96 h), alpha factor 5, mean, n = 4–5) is reported as 3.93E+03 mSv/MBq. Further, under setting [2], the “Tumor dose higher than that of 225Ac-DOTA-MVK(ε)-TATE” value is 1.59 fold and the “Tumor dose higher than that of 225Ac-DOTA-TATE” value is listed as 2.46 fold. Under setting [3], the “Absorbed dose to kidney” value was 4.8 Gy, the “Absorbed dose to tumor” value is given as 32.5 Gy and the “Reduction of kidney dose versus 225Ac-DOTA-MVK(ε)-TATE” value is recorded as ~15%.
On to `CSCC[C@H](NC(=O)CN1CCN(CC(=O)O)CCN(CC(=O)O)CCN(CC(=O)O)CC1)C(=O)N[C@H](C(=O)N[C@@H](CCCCNC(=O)CCCC(=O)N[C@H](Cc1ccccc1)C(=O)N[C@H]1CSSC[C@@H](C(=O)N[C@H](C(=O)O)[C@@H](C)O)NC(=O)[C@H]([C@@H](C)O)NC(=O)[C@H](CCCCN)NC(=O)[C@@H](Cc2c[nH]c3ccccc23)NC(=O)[C@H](Cc2ccc(O)cc2)NC1=O)C(=O)O)C(C)C` [^225Ac-DOTA-MVK(ε)-TATE, metal not drawn], for which, under “mouse, in vivo”, the “Absorbed dose to kidney” value is 5.7 Gy; the “Absorbed dose to tumor” value is listed as 20.4 Gy; the “Reduction of kidney dose versus 225Ac-DOTA-TATE” value is given as 65 to 70%; the “Total effective dose per injected activity, Blood” value is 3.44E+03 mSv/MBq. For the same compound, for the setting “mouse, in vivo”, the “Total effective dose per injected activity, Femur” value is given as 4.19E+04 mSv/MBq; the “Total effective dose per injected activity, Heart” value is given as 1.06E+04 mSv/MBq; the “Total effective dose per injected activity, Intestine” value was 2.36E+04 mSv/MBq; the “Total effective dose per injected activity, Kidney” value is recorded as 1.85 × 10^5 mSv/MBq. Further, under “mouse, in vivo”, the “Total effective dose per injected activity, Liver” value is 1.02E+05 mSv/MBq; the “Total effective dose per injected activity, Lung” value is given as 1.95E+04 mSv/MBq; the “Total effective dose per injected activity, Muscle” value is 7.16E+03 mSv/MBq; the “Total effective dose per injected activity, Spleen” value is given as 2.55E+04 mSv/MBq. In addition, for the setting “mouse, in vivo”, the “Total effective dose per injected activity, Tumor” value is listed as 6.64 × 10^5 mSv/MBq.
Consider `C[C@@H](O)[C@H](NC(=O)[C@@H]1CSSC[C@H](NC(=O)[C@@H](Cc2ccccc2)NC(=O)CN2CCN(CC(=O)O)CCN(CC(=O)O)CCN(CC(=O)O)CC2)C(=O)N[C@@H](Cc2ccc(O)cc2)C(=O)N[C@H](Cc2c[nH]c3ccccc23)C(=O)N[C@@H](CCCCN)C(=O)N[C@@H]([C@@H](C)O)C(=O)N1)C(=O)O` [^225Ac-DOTA-TATE, metal not drawn, reference compound], for which, under “mouse, in vivo”, the “Absorbed dose to kidney” value is reported as 16.2 Gy; the “Absorbed dose to tumor” value is listed as 13.2 Gy; the “Total effective dose per injected activity, Blood” value is 4.00E+03 mSv/MBq; the “Total effective dose per injected activity, Femur” value is on record as 5.86E+04 mSv/MBq. For the setting “mouse, in vivo”, the “Total effective dose per injected activity, Heart” value was 1.42E+04 mSv/MBq; the “Total effective dose per injected activity, Intestine” value is reported as 3.04E+04 mSv/MBq; the “Total effective dose per injected activity, Kidney” value is given as 5.27 × 10^5 mSv/MBq; the “Total effective dose per injected activity, Liver” value is reported as 6.47E+04 mSv/MBq. Also, under “mouse, in vivo”, the “Total effective dose per injected activity, Lung” value is recorded as 3.85E+04 mSv/MBq; the “Total effective dose per injected activity, Muscle” value was 9.33E+03 mSv/MBq; the “Total effective dose per injected activity, Spleen” value is reported as 3.41E+04 mSv/MBq; the “Total effective dose per injected activity, Tumor” value is on record as 4.30 × 10^5 mSv/MBq.
